# Results: patent US20200255503A1 (Regeneron, published 2020)
# Positions count from the first letter of the chain named. Names and notes keep the numbering of the source.
# B1: H4H1232N (antibody, human IgG4, V domains shown)
# VH: EVQLVESGGGLVKPGGSLRLSCAASGFTFRNYNINWVRQAPGKGLEWVSLISGSSSYIYYADSVKGRFTVSRDNAKNSLYLQMNSLRAEDTAVYYCARRTLSYYVMDVWGQGTTVTVSS
# VL: DIQVTQSPSPLSASVGDRVTITCRASQGISNYLAWYQQKPGRVPQLLIYAASTLQSGVPSRFSGSGSGTDFTLTISSLQPEDVATYYCQKYNSAPYTFGQGTKLEIK
# notes: human IgG4 Fc (prefix H4H); also called REGN1908
# B2: H4H2636P (antibody, human IgG4, V domains shown)
# VH: EVQLVESGGGLVQPGGSLRLSCAASGFTFSSYAMSWVRQAPGKGLEWVSAISGRGYNADYADSVKGRFTISRDNSKNTLYLQMNSLRAEDTAVYYCAKLEYFDYWGQGTLVTVSS
# VL: DIQMTQSPSTLSASVGDRVTITCRASQSISSWLAWYQQKPGKAPKLLIYKASSLESGVPSRFSGSGSGTDFTLTISSLRPEDFATYYCQQYNSYPLTFGGGTKVEIK
# notes: human IgG4 Fc (prefix H4H); also called REGN1909
# B3: H2M1236N (antibody, mouse IgG2, V domains shown)
# VH: QVQLQESGPGLVKPSETLSLTCTVSGGSISNYYWSWIRQPPGKGLEWIGYIYYSGRTNYNPSLKSRVTISVDTSKNQFSLKLRSVTAADTAVYYCARHRITRTADSFDYWGQGTLVTVSS
# VL: DIQMTQSPSSLSASVGDRVTITCQASQDITNYLNWYQQKPGKAPKLLIYDASNLETGVPSRFSGSGSGTDFTFTISSLQPEDVATFYCHQYGDLPYTFGQGTKLEIK
# notes: chimeric, human variable domains with mouse IgG2 Fc (prefix H2M)
# B4: H2M1233N (antibody, mouse IgG2, V domains shown)
# VH: QVVLVESGGGVVQPGRSLRLSCAASGFTFSSYGMHWVRQAPGKGLEWVAVIWYDGSNKYYVDSVKGRFTISRDNSNNTIYLQMNSLRAEDTAVYYCARSLIPVAGTDPIFGYWGQGTLVTVSS
# VL: DIQMTQSPSTLSASVGDRVTITCRASQSVSSWLAWYQQKPGKAPKLLIFKASGLESGVPFRFSGSGSGTEFTLTISSLQPDDFATYYCQQYNTYSPTFGQGTKVEIK
# notes: as for B3
# B5: H2M1242N (antibody, mouse IgG2, V domains shown)
# VH: EVQLVESGGGLVRPGGSLRLSCAASGFTFTSYAMNWVRQAPGKGLEWVSSISSYSSYIYIADSVKGRFTLSRDNAKNSLYLQMHSLRPEDTAVYFCAREGYSAYSYFDFWGRGTLVTVSS
# VL: B4 VL with S30I, F49H, K50R, G53S, F60S, S77G, S95F, I106V
# notes: as for B3
# B6: H2M1237N (antibody, mouse IgG2, V domains shown)
# VH: B4 VH with N57I, V61A, S99A
# VL: B4 VL with A51T
# notes: as for B3
# B7: H1M1230N (antibody, V domains shown)
# VH: EVQLVESGGGLVQPGGSLRLSCTASGFIFSNFWMTWVRQAPGKGLEWVANIKQDGSETYCVDSVKGRFTISRDHAKNSLFLQMNSLRAEDTAVYYCARGAGTIYYYGMDVWGQGTTVIVSS
# VL: DIQMTQSPSSVSASVGDRLTITCRASQDISSWLTWYQQKPGKAPNLLIYAASGLQSGVPSRFSGSGSGTDFTLTISNLQPEDFATYYCQQANSFPLTFGQGTRLEIK
# notes: chimeric, human variable domains with mouse Fc (prefix H1M)
# B8: H4H2797P (antibody, human IgG4, V domains shown)
# VH: QVQLVESGGGVVLPGRSLRLSCAASGFTFSSYLMYWVRQAPGKGLEWVAVIWYDGSNKFYGDSVKGRFTISRDNSKNTLYLQMNSLRAEDTAVYYCARDNGNSGYEDSWNAFDIWGQGTMVTVSS
# VL: DIQMTQSPSSLSASVGDRVTITCRASQDIYNYLAWFQQKPGKAPKSLIYAASSLQTGVPSQFSGSGSGTDFTLTISSLQPEDFATYYCQQYNNYPFTFGPGTKVDIK
# notes: human IgG4 Fc (prefix H4H)
# B9: H4H2645P (antibody, human IgG4, V domains shown)
# VH: B2 VH with S31T, S35H, A50S, Y56R, A58S, Y60H, K98R, L99T, D103H, Y104H
# VL: B8 VL with V19I, Y30N, A50G, T56S, Q61K, N92S, N93S
# notes: human IgG4 Fc (prefix H4H)
# B10: H1M1234N (antibody, V domains shown)
# VH: QVQLQQSGPGLVKSSQTLSLTCAISGDSVSSNSVAWNWIRQSPSRGLEWLGRTYYRSKWYNDYAVSVKSRININPDTSKNHFSLQLNSVTPEDTAVYFCARAWNWYYLDYWGQGTLVTVSS
# VL: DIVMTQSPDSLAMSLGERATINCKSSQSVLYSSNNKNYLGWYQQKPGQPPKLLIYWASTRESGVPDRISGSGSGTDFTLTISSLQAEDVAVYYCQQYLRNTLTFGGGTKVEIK
# notes: as for B7
# B11: H4H2594S (antibody, human IgG4, V domains shown)
# VH: EVQLVESGGGLVKPGGSLRLSCAASGFTFSDYYMNWIRQAPGKGLEWVSYISSSGSSIYYADSVKGRFTISRDNAKNSLYLLMNSLRAEDTAVYYCARDGKYNSSPGDYWGQGTLVTVSS
# VL: DIQMTQSPSSLSASVGDRVTIACRASQGISNYLAWFQQKPGKAPKSLIYAASSLQSGVPSKFSGSGSGTDFTLTISSLQPEDFATYYCQQYNSYPLTFGGGTKVEIKR
# notes: human IgG4 Fc (prefix H4H)
# B12: H4H2607B (antibody, human IgG4, V domains shown)
# VH: B11 VH with V48I, I51L, S57A, I58T, L82Q, S104T, S105V, P106A, L115T
# VL: DIQLTQSPSSLSASVGDRVTITCRASQGIRNDLGWYQQKPGKAPKRLIYAASSLQSGVPSRFSGSGSGTEFTLTISSLQPEDFATYYCLQHNSYPYTFGQGTKVEIKR
# notes: human IgG4 Fc (prefix H4H)
# B13: H4H2636B (antibody, human IgG4, V domains shown)
# VH: B2 VH with L110T
# VL: DIQLTQSPSTLSASVGDRVTITCRASQSISSWLAWYQQKPGKAPKLLIYKASSLESGVPSRFSGSGSGTDFTLTISSLRPEDFATYYCQQYNSYPLTFGGGTKVEIKR
# notes: human IgG4 Fc (prefix H4H)
# B14: H4H2864P (antibody, human IgG4, V domains shown)
# VH: EVQLVESGGGLAQPGGSLRLSCAASGFTFNNYAMTWVRQAPGKGLDWVSAISDSGRSTFSADSVKGRFTISRDNSKNTLYLQMDSLRAEDTALYYCAKHRNWNYPVFDYWGQGTLVTVSS
# VL: DIQLTQSPSFLSASVGDRVTITCWASQGISSYLAWYQQKPGKAPKLLIYSASTLQSGVPSRFSGSGSGTEFTLTISSLQPEDFATYYCQQLNSYPFTFGPGTKVDIK
# notes: human IgG4 Fc (prefix H4H)
# B15: H4H1616N (antibody, human IgG4, V domains shown)
# VH: EVELLESGGGLVQPGGSLRLSCAASGFTFSSYAMSWVRQAPGKGLEWVSSISGRVGSTHFADSVKGRFTFSRDNSKNTLYLQLSSLRAEDTAVYYCARSRGAAYFDYWGQGTLVTVSS
# VL: DIQMTQSPSSLSASVGDRVTITCQANQDISNFLNWYQQRPGKAPNLLIYAASNLETGVPSRFSGSGSGTDFTFTISSLQPEDIATYYCQHYDNFPFTFGPGTKVDIK
# notes: human IgG4 Fc (prefix H4H)
# B16: H1M1241N (antibody, V domains shown)
# VH: EVQLVESGGGLVKPGGSLRLSCAASGFTFSSYSMNWVRQAPGKGLEWVSSISSRSSYIYYADSVKGRFTISRDNAKNSLYLQMNSLRAEDTAVYYCARDHIVVVPGASYYYYGMDVWGQGTTVTVSS
# VL: DIQMTQSPSSLSASVGDRVTITCRASQGIRNDLGWYQQKPGKAPKRLISAASSLQSGVPSRFSGSGSGTEFTLTISSLQPEDFATYYCLQHNSYPLTFGGGTKVEIK
# notes: as for B7
# B17: H4H2597B (antibody, human IgG4, V domains shown)
# VH: EVQLVESGGGLVQPGGSLRLSCAVSGFTFSNYAMNWVRQAPGKGLEWVSVISDSGRSTYYADSVKGRFTISRDNSKNTLYLQMNSLRAEDTAVYFCAKRYNWNLHYFDYWGQGTTVTVSS
# VL: EIVLTQSPDFQSVTPKEKVTITCRASQSIGGSLHWYQQKPDQSPKLLIKYASQSFSGVPSRFSGSGSGTDFTLTINSLEAEDAATYYCLQSSSLRTFGQGTKVEIKR
# notes: human IgG4 Fc (prefix H4H)
# B18: H4H2606B (antibody, human IgG4, V domains shown)
# VH: EVQLVESGGGLVKPGGSLRLSCAASGFTFSDYYMNWIRQAPGKGLEWVSYISSSGNSIYYADSVKGRFTISRDNAKNSLFLQMSSLRAEDTAVYYCARDGRYNDRRRGYYWGQGTLVTVSS
# VL: B17 VL with L4M, G31S
# notes: human IgG4 Fc (prefix H4H)
# Molecular target: T1, Fel d1 (B-A)-mmH (cat (Felis domesticus))
# T1 construct: Expressed in CHO cells; also called rFel d1.mmH; rFel d1-mmH
# Assay: SPR Biacore T200, mAb captured by anti-human Fc, antigen injected
# Text: (§1) The binding kinetic parameters were obtained by globally fitting the double reference subtracted data to a 1:1 binding model with mass transport limitation using Biacore T200 Evaluation Software, version 1.0.
# T1 sequence (chain, as listed by the source limits assumed): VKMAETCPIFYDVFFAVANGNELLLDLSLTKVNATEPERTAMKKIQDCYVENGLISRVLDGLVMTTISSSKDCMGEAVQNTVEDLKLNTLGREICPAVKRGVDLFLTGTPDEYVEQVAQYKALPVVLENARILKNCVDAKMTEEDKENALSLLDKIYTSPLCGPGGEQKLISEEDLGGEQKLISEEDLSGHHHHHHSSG
Kd [nM],T1/2 [min],koff [s⁻¹],kon [M⁻¹ s⁻¹],Binder
0.187,46,0.000251,1.34e+06,B1
0.912,49,0.000235,257000,B2

# Molecular target: rFel d1.mFc (dimeric) (cat (Felis domesticus))
# Assay: as above
# Text: as §1
# Chain of rFel d1.mFc (dimeric) (cat (Felis domesticus)) (chain, as listed by the source limits assumed): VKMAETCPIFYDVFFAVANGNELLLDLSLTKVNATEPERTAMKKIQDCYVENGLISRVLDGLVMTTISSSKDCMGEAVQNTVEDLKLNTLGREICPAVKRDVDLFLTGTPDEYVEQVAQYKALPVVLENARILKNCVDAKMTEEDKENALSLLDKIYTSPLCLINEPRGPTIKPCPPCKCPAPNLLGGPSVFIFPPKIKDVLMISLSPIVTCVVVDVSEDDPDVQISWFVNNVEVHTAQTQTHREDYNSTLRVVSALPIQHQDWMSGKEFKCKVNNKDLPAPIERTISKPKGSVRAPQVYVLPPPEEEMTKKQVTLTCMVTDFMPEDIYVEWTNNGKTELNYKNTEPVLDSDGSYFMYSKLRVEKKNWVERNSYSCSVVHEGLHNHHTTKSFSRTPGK
Kd [nM],T1/2 [min],koff [s⁻¹],kon [M⁻¹ s⁻¹],Binder
0.0316,159,7.25e-05,2.3e+06,B1
0.0978,254,4.55e-05,466000,B2

# Molecular target: T1, Fel d1 (B-A)-mmH
# Assay: SPR, mAb captured, Fel d1 (B-A)-mmH injected, 25 C;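 further: rate constants obtained by fitting sensorgrams to a one-to-one binding model, Kd computed as koff over kon, half-life derived from koff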
# Experimental: Antibody-antigen association was monitored for 3 to 5 minutes, and the dissociation of antigen from the captured monoclonal antibody (in running buffer alone at 25° C.) was monitored for 10 or 15 minutes. Kinetic association (kₐ) and dissociation (kₐ) rate constants were determined by processing and fitting the data to a 1:1 binding model using Scrubber 2.0 curve fitting software. Binding dissociation equilibrium constants (KD) and dissociative half-lives (t_{1/2}) were calculated from the kinetic rate constants as: KD=kd/kₐ and t_{1/2}=ln(2)/kₐ.
Kd [nM],koff [s⁻¹],kon [M⁻¹ s⁻¹],t1/2 [min],Binder
0.558,0.000232,415000,50,B3
0.544,0.000166,305000,70,B4
0.449,0.000122,272000,94,B5
0.458,0.000165,359000,70,B6
1.31,0.00051,388000,23,B7
4.69,0.00205,437000,6,B8
0.368,0.000179,487000,65,B9
5.58,0.00142,254000,8,B10
0.402,0.000521,1.3e+06,22,B11
0.364,0.000563,1.55e+06,21,B12
0.144,0.000258,1.79e+06,45,B1
0.924,0.000228,247000,51,B13
0.912,0.000235,257000,49,B2
0.576,0.000309,537000,37,B14
8.21,0.00188,229000,6,B15
0.331,0.000112,337000,104,B16
0.501,0.000558,1.12e+06,21,B17
0.388,0.000486,1.26e+06,24,B18
